{"source": "paper PMC4239648", "target": "HsiC2Δ1–30, bacterial two-hybrid fusion (P. aeruginosa PAO1)", "test": "two-hybrid; bacterial two-hybrid (BTH): T25 and T18 fusions of B. pertussis adenylate cyclase co-transformed in E. coli DHM1; spots on MacConkey maltose and X-gal LB agar, 30 °C, at least 48 h; β-galactosidase activity in Miller units"}
{"substance": "ClpV2, full length, bacterial two-hybrid fusion (enzyme)", "values": [{"measurement": "fold reduction of binding against full-length HsiC2", "result": 10, "unit": "fold"}]}
